Assays:
[1] = Conjugation of anti-CD98 mAbs with Bcl-xL inhibitor synthons (precipitation, DAR, recovery, aggregation); settings: Method E
Experimental: Method A. A solution of BOND-BREAKER tris(2-carboxyethyl)phosphine (TCEP) solution (10 mM, 0.017 mL) was added to a solution of antibody (10 mg/mL, […]) preheated to 37° C. The reaction mixture was kept at 37° C. for 1 hour. The solution of reduced antibody was added to a solution of synthon (3.3 mM, 0.160 mL in DMSO) and gently mixed for 30 minutes. The reaction solution was loaded onto a desalting column (PD10, washed with DPBS 3x before use), followed by DPBS (1.6 mL) and eluted with additional DPBS (3 mL). The purified ADC solution was filtered through a 0.2 micron, low protein-binding 13 mm syringe-filter and stored at 4° C.
Method E. A solution of BOND-BREAKER tris(2-carboxyethyl)phosphine (TCEP) solution (10 mM, 0.017 mL) was added to the solution of antibody (10 mg/mL, 1 mL) at room temperature. The reaction mixture was heated to 37° C. for 75 minutes. The solution of reduced antibody cooled to room temperature and was added to a solution of synthon (10 mM, 0.040 mL in DMSO) followed by addition of boric buffer (0.1 mL, 1M, pH 8). The reaction solution was let to stand for 3 days at room temperature, loaded onto a desalting column (PD10, washed with DPBS 3×5 mL before use), followed by DPBS (1.6 mL) and eluted with additional DPBS (3 mL). The purified ADC solution was filtered through a 0.2 micron, low protein-binding 13 mm syringe-filter and stored at 4° C.

human CD98 ECD = biological target: T1, human CD98 ECD (Homo sapiens, UniProt P08195); test: Biacore surface plasmon resonance binding kinetics (anti-Fc capture); settings: huCD98 ECD
T1 construct: Human CD98 ECD with C-terminal His-tag
T1 sequence (P08195 with tags, fused parts or gaps): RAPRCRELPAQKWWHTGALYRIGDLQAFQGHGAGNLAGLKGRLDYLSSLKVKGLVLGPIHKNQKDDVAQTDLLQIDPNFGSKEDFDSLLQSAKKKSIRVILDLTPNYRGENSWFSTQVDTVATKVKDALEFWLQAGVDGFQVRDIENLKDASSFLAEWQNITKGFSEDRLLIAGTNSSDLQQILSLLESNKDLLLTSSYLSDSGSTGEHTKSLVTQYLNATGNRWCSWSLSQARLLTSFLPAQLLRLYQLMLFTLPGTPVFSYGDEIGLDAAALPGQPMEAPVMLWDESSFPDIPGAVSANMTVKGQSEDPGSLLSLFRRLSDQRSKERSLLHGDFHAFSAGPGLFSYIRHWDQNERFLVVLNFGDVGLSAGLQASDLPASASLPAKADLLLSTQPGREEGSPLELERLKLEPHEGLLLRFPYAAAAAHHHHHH
Experimental: (§1) The binding kinetics of these purified mouse and rat monoclonal anti-CD98 antibodies for purified recombinant CD98 protein (extracellular domain, ECD) were determined by surface plasmon resonance-based measurements made on Biacore T100/T200 instruments (GE Healthcare, Piscataway, N.J.) at 25° C. using an anti-Fc capture assay approach. Binding kinetic measurements were made in the assay buffer HBS-EP+: 10 mM Hepes, pH 7.4, 150 mM NaCl, 3 mM EDTA, 0.05% Tween 20). For example, approximately 8000 RU of anti-Fc (species specific) polyclonal antibody (Thermo Fisher Scientific Inc., Rockford, Ill.) diluted in 10 mM sodium acetate (pH 4.5) was directly immobilized across a CM5 research grade biosensor chip using a standard amine coupling kit according to manufacturer's instructions and procedures at 25 μg/ml. Unreacted moieties on the biosensor surface were blocked with ethanolamine. The test antibody to be captured as a ligand was diluted in running buffer to ˜0.5 μg/mL and injected over anti-Fc surface at a flow rate of 10 μL/min. CD98 binding and dissociation were observed under a continuous flow rate of 80 μL/min. Human and cynomolgus monkey CD98 ECDs, both with a C-terminal His-tag, are used for this study (Table 3). After each cycle the anti-Fc capture surface was regenerated using 10 mM Glycine-HCl, pH 1.5. During the assay, all measurements were referenced against the capture surface alone (i.e., with no captured test antibody) and buffer-only injections (no antigen) were used for double referencing. For kinetic analysis, rate equations derived from the 1:1 Langmuir binding model were fitted simultaneously, globally and with mass transfer term included to multiple referenced antigen binding curves using Biacore T100/T200 Evaluation software.
(§2) The in vitro binding activities of the recombinant anti-CD98 chimeric mAbs were measured against both recombinant CD98 extracellular domain proteins (ECDs) and CD98-expressing cells. Briefly, binding kinetics of anti-CD98 chimera mAbs for human and cynomolgus CD98 ECDs were determined by surface plasmon resonance-based measurements as described in Example 4. Table 10 reported the association and dissociation rate constants for CD98 binding, ka (M^−1 s^−1) and kd (s^−1), and the equilibrium dissociation constant KD (M) of the interaction between antibodies and the target antigen. Binding of anti-CD98 chimera mAbs for CD98 on cell surface was evaluated by flow cytometry against CHO-K1 cell line stably transfected to express human CD98 and 3T12 cell line stably transfected to express cynomolgus monkey CD98.
(§3) The binding kinetics of the recombinant anti-CD98 chimeric antibodies for purified recombinant CD98 protein (extracellular domain, ECD) were determined by surface plasmon resonance-based measurements, as described in the Example 4.

[2] = system: cynomolgus monkey CD98 ECD; test: as above; settings: cyCD98 ECD
Experimental: as §1, §2, §3

human CD98 = biological target: T2, human CD98 (Homo sapiens, UniProt P08195); test: Binding of humanized antibodies to human CD98; settings: humanized framework engineered antibodies
T2 sequence (P08195 1-630 isoform P08195-1): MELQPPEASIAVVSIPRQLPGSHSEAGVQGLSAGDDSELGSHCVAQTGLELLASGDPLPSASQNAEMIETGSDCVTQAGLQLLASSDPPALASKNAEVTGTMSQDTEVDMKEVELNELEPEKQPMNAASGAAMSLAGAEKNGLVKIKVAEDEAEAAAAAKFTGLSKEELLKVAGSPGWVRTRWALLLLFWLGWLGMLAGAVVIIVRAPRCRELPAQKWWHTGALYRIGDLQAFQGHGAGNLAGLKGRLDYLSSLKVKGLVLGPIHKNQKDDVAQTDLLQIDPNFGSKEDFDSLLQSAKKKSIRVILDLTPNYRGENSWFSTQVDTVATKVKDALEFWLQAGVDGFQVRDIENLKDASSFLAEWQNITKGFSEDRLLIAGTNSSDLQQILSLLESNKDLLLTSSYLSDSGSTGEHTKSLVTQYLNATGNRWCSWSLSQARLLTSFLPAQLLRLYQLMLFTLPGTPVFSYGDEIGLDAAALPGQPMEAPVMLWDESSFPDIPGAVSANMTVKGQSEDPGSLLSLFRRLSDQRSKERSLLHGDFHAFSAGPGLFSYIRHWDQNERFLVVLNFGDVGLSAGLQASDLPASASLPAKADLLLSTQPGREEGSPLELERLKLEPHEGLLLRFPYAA

cynomolgus monkey CD98 ECD, sequence (as listed by the source): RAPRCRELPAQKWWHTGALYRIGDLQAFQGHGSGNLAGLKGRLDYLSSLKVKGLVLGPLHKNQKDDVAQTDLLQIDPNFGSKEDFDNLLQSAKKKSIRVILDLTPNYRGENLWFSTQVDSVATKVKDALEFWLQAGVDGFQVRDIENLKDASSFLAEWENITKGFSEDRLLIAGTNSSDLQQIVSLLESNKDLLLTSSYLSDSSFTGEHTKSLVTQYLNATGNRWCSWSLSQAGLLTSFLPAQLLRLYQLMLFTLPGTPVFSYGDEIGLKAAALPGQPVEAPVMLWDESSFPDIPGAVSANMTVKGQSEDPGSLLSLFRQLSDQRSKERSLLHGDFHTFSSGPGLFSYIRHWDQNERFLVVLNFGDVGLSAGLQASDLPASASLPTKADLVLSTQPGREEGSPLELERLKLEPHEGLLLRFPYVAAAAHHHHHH

B1: huAb101: "heavy chain variable sequence of huAb101 is provided in SEQ ID NO: 106"; "light chain variable sequence ... in SEQ ID NO: 107" (antibody, V domains shown)
VH: EVQLVESGGGLVKPGGSLRLSCATSGFTFIDYYMSWVRQAPGKGLEWLGFIRNKANRYTTEYSASVKGRFTISRDNSKSILYLQMNSLKTEDTAVYYCTRDRPAWFVYWGQGTLVTVSS
VL: DIVMTQTPLSLPVTPGEPASISCKSSQSLLYSSNQKNYLAWYLQKPGQSPQLLIYWASTRESGVPDRFSGSGSGTDFTLKISRVEAEDVGVYYCQQYYSYPYTFGGGTKVEIK
% Aggregates by SEC ([1]; conjugation with synthon CZ): 1.8%
DAR by MS ([1]; conjugation with synthon CZ): 4.5
% Aggregates by SEC ([1]; conjugation with synthon TX): 0.3%
DAR by MS ([1]; conjugation with synthon TX): 3.5
ka (human CD98 ECD): 290000 M⁻¹ s⁻¹
kd (human CD98 ECD): 0.0018 s⁻¹
ka [2]: 30000 M⁻¹ s⁻¹
kd [2]: 0.00067 s⁻¹
binding to human CD98 (human CD98): maintained binding

B2: huAb103: "heavy chain variable sequence of huAb103 is provided in SEQ ID NO: 109"; "light chain variable sequence ... in SEQ ID NO: 107" (antibody, V domains shown)
VH: EVQLVESGGGLVKPGGSLRLSCATSGFTFIDYYMSWVRQAPGKGLEWLGFIRNKAYGYTTEYSASVKGRFTISRDNSKSILYLQMNSLKTEDTAVYYCTRDRPAWFVYWGQGTLVTVSS
VL: DIVMTQTPLSLPVTPGEPASISCKSSQSLLYSSNQKNYLAWYLQKPGQSPQLLIYWASTRESGVPDRFSGSGSGTDFTLKISRVEAEDVGVYYCQQYYSYPYTFGGGTKVEIK
% Aggregates by SEC ([1]; conjugation with synthon CZ): 15.9%
DAR by MS ([1]; conjugation with synthon CZ): 4.4
% Aggregates by SEC ([1]; conjugation with synthon TX): 0.9%
DAR by MS ([1]; conjugation with synthon TX): 3.8
ka (human CD98 ECD): 180000 M⁻¹ s⁻¹
kd (human CD98 ECD): 0.00059 s⁻¹
ka [2]: 31000 M⁻¹ s⁻¹
kd [2]: 0.00044 s⁻¹
binding to human CD98 (human CD98): maintained binding

B3: huAb105: "heavy chain variable sequence of huAb105 is provided in SEQ ID NO: 111"; "light chain variable sequence ... in SEQ ID NO: 112" (antibody, V domains shown)
VH: EVQLVESGGGLVQPGGSLRLSCAASGFTFSDYTMAWVRQAPGKGLEWVATIIYSGRGTYYRDAVKGRFTISRDNAKNTLYLQMNSLRAEDTAVYYCARQSDHTYYYWGYFDYWGQGTMVTVSS
VL: DIVMTQTPLSLPVTPGEPASINCKSSQSLLFSGNQKNYLAWYLQKPGQSPQLLIYWASTRQSGVPDRFSGSGSGTDFTLKISRVEAEDVGIYYCQQYYDVPYTFGQGTKLEIK
DAR by MS ([1]; conjugation with synthon CZ): 1.2
% Aggregates by SEC ([1]; conjugation with synthon TX): 0.6%
DAR by MS ([1]; conjugation with synthon TX): 1.7
ka (human CD98 ECD): 140000 M⁻¹ s⁻¹
kd (human CD98 ECD): 2.4e-05 s⁻¹
ka [2]: 38000 M⁻¹ s⁻¹
kd [2]: 5.3e-05 s⁻¹
binding to human CD98 (human CD98): maintained binding

B4: huAb107: "heavy chain variable sequence of huAb107 is provided in SEQ ID NO: 114"; "light chain variable sequence ... in SEQ ID NO: 112" (antibody, V domains shown)
VH: EVQLVESGGGLVQPGGSLRLSCAASGFTFSDYTMAWVRQAPGKGLEWVATIIYSGRGTYYRDAVKGRFTISRDNAKNTLYLQMNSLRAEDTAVYYCARQSDDTYYYWGYFDYWGQGTMVTVSS
VL: DIVMTQTPLSLPVTPGEPASINCKSSQSLLFSGNQKNYLAWYLQKPGQSPQLLIYWASTRQSGVPDRFSGSGSGTDFTLKISRVEAEDVGIYYCQQYYDVPYTFGQGTKLEIK
% Aggregates by SEC ([1]; conjugation with synthon CZ): 1.9%
DAR by MS ([1]; conjugation with synthon CZ): 2.2
% Aggregates by SEC ([1]; conjugation with synthon TX): 1.5%
DAR by MS ([1]; conjugation with synthon TX): 3.1
ka (human CD98 ECD): 110000 M⁻¹ s⁻¹
kd (human CD98 ECD): 3.8e-05 s⁻¹
ka [2]: 33000 M⁻¹ s⁻¹
kd [2]: 8.7e-05 s⁻¹
binding to human CD98 (human CD98): maintained binding

B5: huAb109: "heavy chain variable sequence of huAb109 is provided in SEQ ID NO: 116"; "light chain variable sequence ... in SEQ ID NO: 117" (antibody, V domains shown)
VH: EVQLVESGGGLVQPGGSLRLSCAASGFTFSDYTMAWVRQAPGKGLEWVATIIYDARGTYYRDAVKGRFTISRDNAKNTLYLQMNSLRAEDTAVYYCARQSDDTYYYWGYFDYWGQGTMVTVSS
VL: DIVMTQTPLSLPVTPGEPASINCKSSQSLLFSGNQKNYLAWYLQKPGQSPQLLIYWASTRQSGVPDRFSGSGSGTDFTLKISRVEAEDVGIYYCQQYYSSPYTFGQGTKLEIK
% Aggregates by SEC ([1]; conjugation with synthon CZ): 2.5%
DAR by MS ([1]; conjugation with synthon CZ): 2.1
% Aggregates by SEC ([1]; conjugation with synthon TX): 1.0%
DAR by MS ([1]; conjugation with synthon TX): 2.9
ka (human CD98 ECD): 160000 M⁻¹ s⁻¹
kd (human CD98 ECD): 0.00017 s⁻¹
ka [2]: 26000 M⁻¹ s⁻¹
kd [2]: 0.00031 s⁻¹
binding to human CD98 (human CD98): maintained binding

— patent US20230120736A1, “ANTI-CD98 ANTIBODIES AND ANTIBODY DRUG CONJUGATES” (AbbVie Inc., priority 2016, published 2023)
